According to patent US11054430B2, “Compounds and methods for the detection of methotrexate” (Defined Diagnostics, LLC, priority 2015, dated 2021):

B1: mAb 6D4: anti-methotrexate mouse monoclonal antibody; variable heavy chain SEQ ID NO:11, variable light chain SEQ ID NO:12 (antibody, V domains shown)
VH: QIQLVQSGPELKKPGETVKISCKASGYTFTNYGMNWVKRAPGKGLKWMGWINPYTGEPTYADDFKGRFAFSLETSASTAYLQINNLKNEDMATYFCARNDYYYALDSWGQGTSVTVSS
VL: DVVMTQSPLSLPVSLGDQASISCRSSQSLVKSNGNTYLHWFLQKSGQSPKLLIYKVSNRFSGVPDRFSGSGSGTDFTLKISRVEAEDLGVYFCSQSTHVPWTFGGGTKLEIK
modifications: mouse
B2: mAb 19A6: anti-methotrexate mouse monoclonal antibody; variable heavy chain SEQ ID NO:7, variable light chain SEQ ID NO:8 (antibody, V domains shown)
VH: QIQLVQSGPELKRPGETVKISCKASGYTYTYYGINWLKQAPGKDLKWMGWINPYTGEPAYADDFKGRFAFSLETSATTTYLQINNLKNEDMATYFCARNSYYYALDYWGQGTSVTVSS
VL: DVVMTQTPLSLPVNLGDQASISCRSSQNLVKSNGNTYLHWFLQKPGQSPKLLIYKVSNRFSGVPDRFSGSGSGTDFTLKISRVEAEDLGVYFCSQSTHVPWTFGGGTKLEIK
modifications: mouse
B3: mAb 10C7: anti-methotrexate mouse monoclonal antibody; variable heavy chain SEQ ID NO:3, variable light chain SEQ ID NO:4 (antibody, V domains shown)
VH: EVQLVESGGGLVKPGGSLRLSCAASGFTFRTYAMSWVRQTPEKRLEWVATITSGGTYIYYLDSVKGRFTISRDNAKNVLYLQMSSLRSEDTAMYYCVRLYGYDGMDYWGQGTSVTVSA
VL: QAVVTQESALTTSPGETVTLTCRSSTGAVSTSNYVNWVQEKPDHLFTGLIGGTKNRVPGVPARFSGSLIGDKAALTITGAQTEDEAIYFCALWYTNHLVFGGGTKLTVL
modifications: mouse

What was measured:
Format in all cases: binding
Details in all cases: chemical spiked at 100 μM; calculated MTX concentration divided by 100 μM
[1] = MTX antibody cross-reactivity with DAMPA (competitive assay)
Method: (§1) The 4 selected MTX antibodies, 10C7, 45C11, 6D4, 19A6, were evaluated for cross-reactivity with MTX metabolites and related compounds (7-OH-MTX, DAMPA, Folic Acid and Folinic Acid). The amount of cross-reactivity with each chemical is defined as the percent ratio of the calculated MTX concentration of the chemical divided by 100 μM, which was the spiked concentration of the chemical.

[2] = MTX antibody cross-reactivity with Folinic Acid (competitive assay)
Method: as §1

[3] = MTX antibody cross-reactivity with Folic Acid (competitive assay)
Method: as §1

[4] = MTX antibody cross-reactivity with 7-OH-MTX (competitive assay)
Method: as §1

| Molecule | % Cross-Reactivity with DAMPA [1] [%] | % Cross-Reactivity with Folinic Acid [2] [%] | % Cross-Reactivity with Folic Acid [3] [%] | % Cross-Reactivity with 7-OH-MTX [4] [%] |
| --- | --- | --- | --- | --- |
| B1 | 0.52 | 0.24 | 0.48 | 0.91 |
| B2 | 0.029 | 0.11 | 0.073 | 0.76 |
| B3 | 0.43 | 0.28 | 0.24 | 0.37 |
